The results in this text go back to paper PMC2788227 (PLoS ONE, 2009).

Data set [1] concerns CC(=O)[C@@H](O)[C@H](O)COP(=O)(O)O. Kind of data set: purified protein. The conditions noted are these: pH 7.8; 22.0 °C.
Data set [2] relates to NC(=O)C1=CN([C@@H]2O[C@H](COP(=O)(O)OP(=O)(O)OC[C@H]3O[C@@H](n4cnc5c(N)ncnc54)[C@H](OP(=O)(O)O)[C@@H]3O)[C@@H](O)[C@H]2O)C=CC1. The experiment in a line: purified protein. The conditions noted are these: pH 7.8; 22.0 °C; varied: cofactor.

On to “F. tularensis MEP synthase (IspC; 1-deoxy-D-xylulose 5-phosphate reductoisomerase) (Francisella tularensis subsp. holarctica LVS)”, for which the Km (as a rule, the concentration of substrate that gives half-maximal velocity) was 103.7 ± 12.1 µM in data set [1] and 13.3 ± 1.5 µM in data set [2].
